From patent publication US20100261245

System: T1, VEGF, P15692-4
T1 sequence: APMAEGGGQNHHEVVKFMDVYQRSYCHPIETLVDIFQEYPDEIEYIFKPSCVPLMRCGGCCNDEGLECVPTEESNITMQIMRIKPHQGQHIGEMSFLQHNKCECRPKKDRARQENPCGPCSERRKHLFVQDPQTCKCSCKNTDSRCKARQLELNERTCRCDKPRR
Assay: SPR
Conditions: BIAcore 2000, VEGF immobilized, aptamer 30-500 nM

Sequence: AUGCAGUUUGAGAAGUCGCGCAU [PEGylated anti-VEGF 2'-OMe-RNA aptamer]
- Kd (2'-OMe at all positions as printed, 5'-PEG 20 kDa (mPEG-SPA via 5' amine), PBS pH 7.4): 0.087 µM

Sequence: AUGCAGUUUGAGAAGUCGCGCAU [anti-VEGF 2'-OMe-RNA aptamer]
- Kd (2'-OMe at all positions as printed (Am, Um, Gm, Cm), 5' terminal amine group stated for the PEGylation precursor, PBS pH 7.4 stated for the PEGylated aptamer): 0.00187 µM
